The series “SEC” concerns the molecule itself. Description: SEC. For orientation: Size exclusion chromatography separates by hydrodynamic size, large species first.
The target of the next series is T1, Suv3 helicase (UniProt Q8IYB8 23-786, Alexa 647 label (site not stated) in the MST assay).
T1 sequence (looked up): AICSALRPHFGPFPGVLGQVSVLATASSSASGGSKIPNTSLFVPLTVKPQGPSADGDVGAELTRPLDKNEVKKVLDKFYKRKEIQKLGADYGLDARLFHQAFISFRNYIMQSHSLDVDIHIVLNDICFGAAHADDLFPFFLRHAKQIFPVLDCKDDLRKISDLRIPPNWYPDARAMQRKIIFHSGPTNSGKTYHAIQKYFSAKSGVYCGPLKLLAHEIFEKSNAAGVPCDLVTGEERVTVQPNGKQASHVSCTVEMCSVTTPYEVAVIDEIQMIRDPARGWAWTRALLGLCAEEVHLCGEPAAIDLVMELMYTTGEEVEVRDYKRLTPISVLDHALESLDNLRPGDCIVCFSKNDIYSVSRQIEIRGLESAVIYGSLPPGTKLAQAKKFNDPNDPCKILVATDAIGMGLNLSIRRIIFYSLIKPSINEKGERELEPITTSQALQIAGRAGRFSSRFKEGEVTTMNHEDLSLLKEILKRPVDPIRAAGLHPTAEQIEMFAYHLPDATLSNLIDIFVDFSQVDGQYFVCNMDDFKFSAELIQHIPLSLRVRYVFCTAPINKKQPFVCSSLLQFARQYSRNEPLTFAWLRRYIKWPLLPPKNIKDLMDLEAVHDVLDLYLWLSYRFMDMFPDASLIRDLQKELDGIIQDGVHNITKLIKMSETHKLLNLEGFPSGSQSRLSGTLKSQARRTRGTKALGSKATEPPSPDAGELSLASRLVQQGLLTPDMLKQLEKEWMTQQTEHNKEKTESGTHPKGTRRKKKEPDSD
Description: MST.

The series “SAXS” concerns the molecule itself. Description: SAXS.

B1: human polynucleotide phosphorylase (hPNPase), wild type, residues 46-783 (enzyme, UniProt Q8TCS8 46-783, looked up)
chain: AVAVDLGNRKLEISSGKLARFADGSAVVQSGDTAVMVTAVSKTKPSPSQFMPLVVDYRQKAAAAGRIPTNYLRREIGTSDKEILTSRIIDRSIRPLFPAGYFYDTQVLCNLLAVDGVNEPDVLAINGASVALSLSDIPWNGPVGAVRIGIIDGEYVVNPTRKEMSSSTLNLVVAGAPKSQIVMLEASAENILQQDFCHAIKVGVKYTQQIIQGIQQLVKETGVTKRTPQKLFTPSPEIVKYTHKLAMERLYAVFTDYEHDKVSRDEAVNKIRLDTEEQLKEKFPEADPYEIIESFNVVAKEVFRSIVLNEYKRCDGRDLTSLRNVSCEVDMFKTLHGSALFQRGQTQVLCTVTFDSLESGIKSDQVITAINGIKDKNFMLHYEFPPYATNEIGKVTGLNRRELGHGALAEKALYPVIPRDFPFTIRVTSEVLESNGSSSMASACGGSLALMDSGVPISSAVAGVAIGLVTKTDPEKGEIEDYRLLTDILGIEDYNGDMDFKIAGTNKGITALQADIKLPGIPIKIVMEAIQQASVAKKEILQIMNKTISKPRASRKENGPVVETVQVPLSKRAKFVGPGGYNLKKLQAETGVTISQVDEETFSVFAPTPSAMHEARDFITEICKDDQEQQLEFGAVYTATITEIRDTGVMVKLYPNMTAVLLHNTQLDQRKIKHPTALGLEVGQEIQVKYFGRDPADGRMRLSRKVLQSPATTVVRTLNDRSSIVMGEPISQSSSNSQ
One may read the stoichiometry N as a count of units in the complex or per binding partner. What is called Kd is the concentration at which binding is half-saturated. Read a high Kd as a looser complex. For the molecule B1, in the series “SEC”, the “stoichiometry N” value turned out to be 3. The molecule also gave a Kd with Suv3 helicase of 297 ± 80 nM.

B2: hPNPase G499R-S484A double mutant, residues 46-783 (enzyme, human, UniProt Q8TCS8 46-783, looked up)
chain: AVAVDLGNRKLEISSGKLARFADGSAVVQSGDTAVMVTAVSKTKPSPSQFMPLVVDYRQKAAAAGRIPTNYLRREIGTSDKEILTSRIIDRSIRPLFPAGYFYDTQVLCNLLAVDGVNEPDVLAINGASVALSLSDIPWNGPVGAVRIGIIDGEYVVNPTRKEMSSSTLNLVVAGAPKSQIVMLEASAENILQQDFCHAIKVGVKYTQQIIQGIQQLVKETGVTKRTPQKLFTPSPEIVKYTHKLAMERLYAVFTDYEHDKVSRDEAVNKIRLDTEEQLKEKFPEADPYEIIESFNVVAKEVFRSIVLNEYKRCDGRDLTSLRNVSCEVDMFKTLHGSALFQRGQTQVLCTVTFDSLESGIKSDQVITAINGIKDKNFMLHYEFPPYATNEIGKVTGLNRRELGHGALAEKALYPVIPRDFPFTIRVTSEVLESNGSSAMASACGGSLALMDSRVPISSAVAGVAIGLVTKTDPEKGEIEDYRLLTDILGIEDYNGDMDFKIAGTNKGITALQADIKLPGIPIKIVMEAIQQASVAKKEILQIMNKTISKPRASRKENGPVVETVQVPLSKRAKFVGPGGYNLKKLQAETGVTISQVDEETFSVFAPTPSAMHEARDFITEICKDDQEQQLEFGAVYTATITEIRDTGVMVKLYPNMTAVLLHNTQLDQRKIKHPTALGLEVGQEIQVKYFGRDPADGRMRLSRKVLQSPATTVVRTLNDRSSIVMGEPISQSSSNSQ
Consider B2, for which, in the series “SEC”, the “stoichiometry N” value amounted to 3.

B3: hPNPase S484A mutant (inactive) (enzyme, human, UniProt Q8TCS8 46-783, looked up)
chain: AVAVDLGNRKLEISSGKLARFADGSAVVQSGDTAVMVTAVSKTKPSPSQFMPLVVDYRQKAAAAGRIPTNYLRREIGTSDKEILTSRIIDRSIRPLFPAGYFYDTQVLCNLLAVDGVNEPDVLAINGASVALSLSDIPWNGPVGAVRIGIIDGEYVVNPTRKEMSSSTLNLVVAGAPKSQIVMLEASAENILQQDFCHAIKVGVKYTQQIIQGIQQLVKETGVTKRTPQKLFTPSPEIVKYTHKLAMERLYAVFTDYEHDKVSRDEAVNKIRLDTEEQLKEKFPEADPYEIIESFNVVAKEVFRSIVLNEYKRCDGRDLTSLRNVSCEVDMFKTLHGSALFQRGQTQVLCTVTFDSLESGIKSDQVITAINGIKDKNFMLHYEFPPYATNEIGKVTGLNRRELGHGALAEKALYPVIPRDFPFTIRVTSEVLESNGSSAMASACGGSLALMDSGVPISSAVAGVAIGLVTKTDPEKGEIEDYRLLTDILGIEDYNGDMDFKIAGTNKGITALQADIKLPGIPIKIVMEAIQQASVAKKEILQIMNKTISKPRASRKENGPVVETVQVPLSKRAKFVGPGGYNLKKLQAETGVTISQVDEETFSVFAPTPSAMHEARDFITEICKDDQEQQLEFGAVYTATITEIRDTGVMVKLYPNMTAVLLHNTQLDQRKIKHPTALGLEVGQEIQVKYFGRDPADGRMRLSRKVLQSPATTVVRTLNDRSSIVMGEPISQSSSNSQ
B3: the “stoichiometry N” value in “SAXS” was 3.

B4: hPNPase D713Y-S484A double mutant, residues 46-783 (enzyme, human, UniProt Q8TCS8 46-783, looked up)
chain: AVAVDLGNRKLEISSGKLARFADGSAVVQSGDTAVMVTAVSKTKPSPSQFMPLVVDYRQKAAAAGRIPTNYLRREIGTSDKEILTSRIIDRSIRPLFPAGYFYDTQVLCNLLAVDGVNEPDVLAINGASVALSLSDIPWNGPVGAVRIGIIDGEYVVNPTRKEMSSSTLNLVVAGAPKSQIVMLEASAENILQQDFCHAIKVGVKYTQQIIQGIQQLVKETGVTKRTPQKLFTPSPEIVKYTHKLAMERLYAVFTDYEHDKVSRDEAVNKIRLDTEEQLKEKFPEADPYEIIESFNVVAKEVFRSIVLNEYKRCDGRDLTSLRNVSCEVDMFKTLHGSALFQRGQTQVLCTVTFDSLESGIKSDQVITAINGIKDKNFMLHYEFPPYATNEIGKVTGLNRRELGHGALAEKALYPVIPRDFPFTIRVTSEVLESNGSSAMASACGGSLALMDSGVPISSAVAGVAIGLVTKTDPEKGEIEDYRLLTDILGIEDYNGDMDFKIAGTNKGITALQADIKLPGIPIKIVMEAIQQASVAKKEILQIMNKTISKPRASRKENGPVVETVQVPLSKRAKFVGPGGYNLKKLQAETGVTISQVDEETFSVFAPTPSAMHEARDFITEICKDDQEQQLEFGAVYTATITEIRDTGVMVKLYPNMTAVLLHNTQLYQRKIKHPTALGLEVGQEIQVKYFGRDPADGRMRLSRKVLQSPATTVVRTLNDRSSIVMGEPISQSSSNSQ
As to B4, in “SEC”, the “stoichiometry N” value is 3.

B5: hPNPase P467S-S484A double mutant, residues 46-783 (enzyme, human, UniProt Q8TCS8 46-783, looked up)
chain: AVAVDLGNRKLEISSGKLARFADGSAVVQSGDTAVMVTAVSKTKPSPSQFMPLVVDYRQKAAAAGRIPTNYLRREIGTSDKEILTSRIIDRSIRPLFPAGYFYDTQVLCNLLAVDGVNEPDVLAINGASVALSLSDIPWNGPVGAVRIGIIDGEYVVNPTRKEMSSSTLNLVVAGAPKSQIVMLEASAENILQQDFCHAIKVGVKYTQQIIQGIQQLVKETGVTKRTPQKLFTPSPEIVKYTHKLAMERLYAVFTDYEHDKVSRDEAVNKIRLDTEEQLKEKFPEADPYEIIESFNVVAKEVFRSIVLNEYKRCDGRDLTSLRNVSCEVDMFKTLHGSALFQRGQTQVLCTVTFDSLESGIKSDQVITAINGIKDKNFMLHYEFPPYATNEIGKVTGLNRRELGHGALAEKALYPVIPRDFSFTIRVTSEVLESNGSSAMASACGGSLALMDSGVPISSAVAGVAIGLVTKTDPEKGEIEDYRLLTDILGIEDYNGDMDFKIAGTNKGITALQADIKLPGIPIKIVMEAIQQASVAKKEILQIMNKTISKPRASRKENGPVVETVQVPLSKRAKFVGPGGYNLKKLQAETGVTISQVDEETFSVFAPTPSAMHEARDFITEICKDDQEQQLEFGAVYTATITEIRDTGVMVKLYPNMTAVLLHNTQLDQRKIKHPTALGLEVGQEIQVKYFGRDPADGRMRLSRKVLQSPATTVVRTLNDRSSIVMGEPISQSSSNSQ
In the case of B5, the “stoichiometry N” value in “SEC” was determined as 3.

B6: hPNPase D713Y mutant, residues 46-783 (enzyme, human, UniProt Q8TCS8 46-783, looked up)
chain: AVAVDLGNRKLEISSGKLARFADGSAVVQSGDTAVMVTAVSKTKPSPSQFMPLVVDYRQKAAAAGRIPTNYLRREIGTSDKEILTSRIIDRSIRPLFPAGYFYDTQVLCNLLAVDGVNEPDVLAINGASVALSLSDIPWNGPVGAVRIGIIDGEYVVNPTRKEMSSSTLNLVVAGAPKSQIVMLEASAENILQQDFCHAIKVGVKYTQQIIQGIQQLVKETGVTKRTPQKLFTPSPEIVKYTHKLAMERLYAVFTDYEHDKVSRDEAVNKIRLDTEEQLKEKFPEADPYEIIESFNVVAKEVFRSIVLNEYKRCDGRDLTSLRNVSCEVDMFKTLHGSALFQRGQTQVLCTVTFDSLESGIKSDQVITAINGIKDKNFMLHYEFPPYATNEIGKVTGLNRRELGHGALAEKALYPVIPRDFPFTIRVTSEVLESNGSSSMASACGGSLALMDSGVPISSAVAGVAIGLVTKTDPEKGEIEDYRLLTDILGIEDYNGDMDFKIAGTNKGITALQADIKLPGIPIKIVMEAIQQASVAKKEILQIMNKTISKPRASRKENGPVVETVQVPLSKRAKFVGPGGYNLKKLQAETGVTISQVDEETFSVFAPTPSAMHEARDFITEICKDDQEQQLEFGAVYTATITEIRDTGVMVKLYPNMTAVLLHNTQLYQRKIKHPTALGLEVGQEIQVKYFGRDPADGRMRLSRKVLQSPATTVVRTLNDRSSIVMGEPISQSSSNSQ
B6: the “stoichiometry N” value in “SAXS” is 3. The molecule further registered a Kd with Suv3 helicase of 3890 ± 545 nM.

Values taken from article PMC11851098 (Nucleic Acids Research, 2025).
